{"source": "patent US20060068386A1", "about": "“Complete genome and protein sequence of the hyperthermophile methanopyrus kandleri av19 and monophyly of archael methanogens and methods of use thereof” (priority 2002, published 2006)", "molecules": {"B1": {"name": "M. kandleri AV19 PCNA (MK1030), DNA polymerase sliding clamp (other)", "chain": "LVEFRAYQEEARYFKYAFNAAGKVVEEAPLIVTENGIVSRAMDASHIAMAVLEMPWEMFDEYEPPSDELMYGLDMEEVTRIVRRARVTDEITLEGEDEEEVIIKLGSSGYEREFRLRSIDIDDIPDEPELDFAVEVTVVPDFIQDAVRDADLVSDTVKVGAKGNTFYFKAEGERGRVIPKVQEGAEALLTFEVEEDVETAYPLDYLKDMIQAAQGAESVRIRLGQDMPLELTFRIGPAGEGKLTFYLAPRVEE"}}, "key": {"[1]": {"biological_target": "T1, M. kandleri AV19 DNA polymerase family B (Mka PolB) (MK1039) (Methanopyrus kandleri AV19)", "T1 chain": "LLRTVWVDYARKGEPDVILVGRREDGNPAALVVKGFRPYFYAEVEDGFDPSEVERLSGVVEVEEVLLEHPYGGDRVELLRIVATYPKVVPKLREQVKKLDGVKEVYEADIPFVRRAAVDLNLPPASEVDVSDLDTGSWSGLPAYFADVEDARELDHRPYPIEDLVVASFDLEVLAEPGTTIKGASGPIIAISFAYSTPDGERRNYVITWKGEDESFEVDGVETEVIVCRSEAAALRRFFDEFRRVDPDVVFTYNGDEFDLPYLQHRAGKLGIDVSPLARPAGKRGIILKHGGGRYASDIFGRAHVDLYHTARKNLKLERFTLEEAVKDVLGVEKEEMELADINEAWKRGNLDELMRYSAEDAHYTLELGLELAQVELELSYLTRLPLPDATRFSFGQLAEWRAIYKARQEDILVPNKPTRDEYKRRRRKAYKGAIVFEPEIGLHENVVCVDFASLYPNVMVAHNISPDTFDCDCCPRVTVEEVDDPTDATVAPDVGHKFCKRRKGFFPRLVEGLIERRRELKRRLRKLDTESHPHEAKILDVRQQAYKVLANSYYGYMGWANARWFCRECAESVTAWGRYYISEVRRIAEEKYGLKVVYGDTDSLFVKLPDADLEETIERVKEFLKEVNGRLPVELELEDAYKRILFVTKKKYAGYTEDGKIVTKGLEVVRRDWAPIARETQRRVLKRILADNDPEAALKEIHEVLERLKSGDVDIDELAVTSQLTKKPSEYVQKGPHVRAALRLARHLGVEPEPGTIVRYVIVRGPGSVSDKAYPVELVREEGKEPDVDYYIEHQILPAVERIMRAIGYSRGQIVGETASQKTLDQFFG", "test": "cell-based or functional assay"}, "PolB": {"test_system": "PolB", "test": "Interaction of polB with PCNA (primer extension assay)", "format": "biochemical, Methanopyrus kandleri", "conditions": "PCNA 5.6 μM subunits, 100 mM NaCl", "protocol": "PolB was incubated with PCNA (final concentration 5.6 μM subunits) in the presence of 100 mM NaCl. The polymerase activity was measured in the primer extension assay and compared to the activity without PCNA added. Even without clamp loader, the interaction of PCNA with PolB was detected as the initial rate of the primer extension increased 1.75 times. […] This happens, most likely because PCNA anchors polB on the PTJ and/or prevents partial melting of the PTJ duplex."}, "M.K. polB DNA polymerase": {"biological_target": "M.K. polB DNA polymerase (Methanopyrus kandleri, UniProt Q8TWJ5)", "sequence (Q8TWJ5 entry or part of it)": "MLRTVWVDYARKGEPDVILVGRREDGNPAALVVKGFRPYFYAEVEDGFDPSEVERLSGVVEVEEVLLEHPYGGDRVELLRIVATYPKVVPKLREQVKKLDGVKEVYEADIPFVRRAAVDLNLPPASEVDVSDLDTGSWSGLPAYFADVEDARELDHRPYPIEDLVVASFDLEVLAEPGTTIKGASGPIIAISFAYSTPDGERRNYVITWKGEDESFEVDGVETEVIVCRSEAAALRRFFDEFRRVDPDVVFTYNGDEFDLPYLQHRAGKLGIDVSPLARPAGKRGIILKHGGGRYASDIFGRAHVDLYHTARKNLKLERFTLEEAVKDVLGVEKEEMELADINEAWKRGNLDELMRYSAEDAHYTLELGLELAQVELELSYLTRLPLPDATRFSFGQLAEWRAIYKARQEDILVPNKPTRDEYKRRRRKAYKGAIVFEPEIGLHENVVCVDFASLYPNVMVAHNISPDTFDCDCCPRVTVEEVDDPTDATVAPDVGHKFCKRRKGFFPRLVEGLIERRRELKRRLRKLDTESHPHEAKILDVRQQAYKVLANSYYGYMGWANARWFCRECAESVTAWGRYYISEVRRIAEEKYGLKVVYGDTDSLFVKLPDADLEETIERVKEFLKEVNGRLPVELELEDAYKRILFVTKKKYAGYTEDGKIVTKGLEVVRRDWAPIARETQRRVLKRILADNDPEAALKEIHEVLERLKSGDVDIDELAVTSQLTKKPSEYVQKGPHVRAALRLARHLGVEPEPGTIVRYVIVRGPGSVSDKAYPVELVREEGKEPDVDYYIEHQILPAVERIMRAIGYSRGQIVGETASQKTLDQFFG", "test": "Effects of media components on M.K. polB DNA polymerase activity (primer extension)", "format": "biochemical", "protocol": "DNA polymerase reaction mixtures (15-20 μl) contained dATP, dTTP, dCTP, and dGTP (1 mM each), 4.5 mM MgCl2, detergents Tween 20 and Nonidet P-40 (0.2% each), fixed concentrations of PTJ—duplex, other additions, as indicated, and appropriate amounts of polB in 30 mM Tris-HCl buffer pH 8.0 (25° C.). The background reaction mixtures contained all components except DNA polymerases. Primer extensions were carried out for a preset time at 75° C. in PTC-150 Minicycler (MJ Research, Inc.; Waltham, Mass.). 5 μl samples were removed and chilled to 4° C. followed by immediate addition of 20 μl of 20 mM EDTA. The samples were desalted by centrifugation through Sephadex G-50 spun columns, diluted, and analyzed on a ABI Prism 377 DNA sequencer (Applied BioSystems; Foster City, Calif.). For each sample, raw data were extracted from the sequencer trace files with the program Chromas 1.5 (Technelysium Pty Ltd., Australia), and the fluorescent signals were analyzed by our nonlinear regression data analysis programs written in Fortran. The programs applied Powell algorithms to approximate the signals by a number of Gaussian peaks and calculate integral fluorescent intensities for each product peak. The total amount of fluorescent products for each time of incubation was determined, and the initial rates of extension were calculated.\nThe next two tables (Table 4 and 5) display effects of various media components on M.K. polB DNA polymerase activity. Initial rates of primer extension reaction were measured as described by Pavlov et al., 2002."}}, "data": [{"molecule": "B1", "values": [{"measurement": "initial rate of the primer extension", "setting": "[1]", "value": 1.75, "unit": "fold"}, {"measurement": "effect on hydrolysis of the primer annealed to the duplex", "setting": "PolB", "value": "suppression of hydrolysis of the primer"}, {"measurement": "effect on polymerase activity of PolB", "setting": "M.K. polB DNA polymerase", "value": "increase"}]}]}
